Paper PMC3714108
Like-named read-outs stand apart in the source and are kept apart here.

Tests used:
Experiment in all cases: EMSA
[1] = target: T1, CcrA (Staphylococcus aureus 923 (USA300, …, UniProt Q84BN8 1-449))
T1 sequence: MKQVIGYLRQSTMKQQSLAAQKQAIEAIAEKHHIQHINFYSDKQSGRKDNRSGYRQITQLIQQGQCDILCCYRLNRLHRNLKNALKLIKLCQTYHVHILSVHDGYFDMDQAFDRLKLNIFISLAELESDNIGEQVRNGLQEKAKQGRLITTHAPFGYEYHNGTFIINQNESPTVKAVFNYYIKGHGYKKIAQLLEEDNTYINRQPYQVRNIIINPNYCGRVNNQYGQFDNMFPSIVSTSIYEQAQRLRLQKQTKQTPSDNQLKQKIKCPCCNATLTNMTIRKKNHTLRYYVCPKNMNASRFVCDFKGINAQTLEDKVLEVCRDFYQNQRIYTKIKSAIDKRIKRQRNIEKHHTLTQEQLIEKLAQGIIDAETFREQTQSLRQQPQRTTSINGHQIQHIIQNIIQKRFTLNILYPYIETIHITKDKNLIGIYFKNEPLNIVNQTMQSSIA

[2] = target: T1, CcrA; remark: listed apart in the source
[3] = target: T2, CcrB (Staphylococcus aureus 923 (USA300, …, UniProt Q9XB94 1-542))
T2 sequence: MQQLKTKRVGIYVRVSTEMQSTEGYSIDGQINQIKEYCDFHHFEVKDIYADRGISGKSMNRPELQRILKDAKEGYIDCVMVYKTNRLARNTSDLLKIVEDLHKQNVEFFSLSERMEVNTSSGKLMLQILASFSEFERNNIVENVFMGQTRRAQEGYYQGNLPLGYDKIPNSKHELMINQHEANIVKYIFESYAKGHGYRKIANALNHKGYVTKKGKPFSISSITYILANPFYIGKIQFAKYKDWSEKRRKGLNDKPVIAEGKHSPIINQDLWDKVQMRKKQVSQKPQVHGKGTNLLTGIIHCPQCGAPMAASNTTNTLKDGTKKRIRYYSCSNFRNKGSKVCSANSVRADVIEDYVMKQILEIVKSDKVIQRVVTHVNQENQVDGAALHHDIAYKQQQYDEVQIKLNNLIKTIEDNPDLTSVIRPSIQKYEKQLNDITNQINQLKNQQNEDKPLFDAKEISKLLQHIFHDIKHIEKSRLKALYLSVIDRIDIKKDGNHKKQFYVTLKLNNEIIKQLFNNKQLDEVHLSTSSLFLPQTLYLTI

[4] = target: T1, CcrA; remark: listed apart in the source
[5] = target: T1, CcrA; remark: listed apart in the source
[6] = target: T2, CcrB; remark: listed apart in the source

B1: attB ns half site 62 (dsDNA)
DNA 1: TACAGAGCATTTAAGATTATGCGAGGAGATGGCTGAGAACACCCCTTGTGAGGTACTTCATG
DNA 2: CATGAAGTACCTCACAAGGGGTGTTCTCAGCCATCTCCTCGCATAATCTTAAATGCTCTGTA
binding result [1]: binds

B2: attSCC68 (dsDNA)
DNA 1: TTATTTTTTCAAAAACCGCATCATTAACTGATAAGCAGAAGCTTATCATAAATGATGCGGTTTTTTCA
DNA 2: TGAAAAAACCGCATCATTTATGATAAGCTTCTGCTTATCAGTTAATGATGCGGTTTTTGAAAAAATAA
binding result [2]: no binding | Kd [3]: ~14.1 nM

B3: attL58 (dsDNA)
DNA 1: TACAGAGCATTTAAGATTATGCGAGGAGAAGCTTATCATAAATGATGCGGTTTTTTCA
DNA 2: TGAAAAAACCGCATCATTTATGATAAGCTTCTCCTCGCATAATCTTAAATGCTCTGTA
Kd [3]: ~14.1 nM | binding result [4]: binds

B4: SCC half site 36 (dsDNA)
DNA 1: ATTTTTCAAAAACCGCATCATTAACTGATAAGCAGA
DNA 2: TCTGCTTATCAGTTAATGATGCGGTTTTTGAAAAAT
binding result [5]: no binding | binding result [6]: binds

B5: attR72 (dsDNA)
DNA 1: TTAATTTTTCAAAAACCGCATCATTAACTGATAAGCAGAGGCGTATCATAAGTAAAACTAAAAAATTCTGTA
DNA 2: TACAGAATTTTTTAGTTTTACTTATGATACGCCTCTGCTTATCAGTTAATGATGCGGTTTTTGAAAAATTAA
binding result [2]: no binding | Kd [3]: ~14.1 nM

B6: attB62 (dsDNA)
DNA 1: TACAGAGCATTTAAGATTATGCGAGGAGAGGCGTATCATAAGTAAAACTAAAAAATTCTGTA
DNA 2: TACAGAATTTTTTAGTTTTACTTATGATACGCCTCTCCTCGCATAATCTTAAATGCTCTGTA
Kd [3]: ~14.1 nM | binding result [4]: binds
